Results on one protein are retold here after article PMC3142617 (Cell host & microbe, 2011).

The data set “SEC-MALS” deals with the molecule itself. The experiment in a line: SEC-MALS. On the technique in general: In gel filtration, larger molecules generally elute earlier.
The data set “AUC” deals with the molecule itself. In words: AUC.

B1: L6TIR (L6 TIR domain, residues 29-229) (domain or fragment, flax (Linum usitatissimum))
chain: SNAKDSIVNDDDDSTSEVDAISDSTNPSGSFPSVEYEVFLSFRGPDTREQFTDFLYQSLRRYKIHTFRDDDELLKGKEIGPNLLRAIDQSKIYVPIISSGYADSKWCLMELAEIVRRQEEDPRRIILPIFYMVDPSDVRHQTGCYKKAFRKHANKFDGQTIQNWKDALKKVGDLKGWHIGKNDKQGAIADKVSADIWSHISKEN
For orientation: stoichiometry N means a count of units in the complex or per binding partner. In general, Kd refers to a measure of binding affinity in units of concentration. Low values mean a tighter complex, high ones a looser complex. In the case of B1, the “stoichiometry N” value in “SEC-MALS” was ~2. Also, in the data set “AUC”, the dissociation constant (Kd) was found to be 20.3 µM and the “stoichiometry N” value came out at 2.
